Data from publication PMC6949295 (2020).
Each block holds one substance with its values, some of them ahead of it.

What was measured:
Assay in all cases: co-immunoprecipitation (IP: HA, blot: Flag)
Conditions in all cases: 293T cells; parent: 1.00
[1] = molecular target: HA-Exo70(S59D)
[2] = molecular target: HA-Exo70(S47D/S59D)
[3] = molecular target: HA-Exo70(S47D)

- response (relative band intensity) [1]: 1
Substance: Exo70 wild type, HA-tagged and Flag-tagged copies co-expressed (from UniProt O54922) S59D

- response (relative band intensity) [2]: 0.96
Substance: Exo70 wild type, HA-tagged and Flag-tagged copies co-expressed (from UniProt O54922) S47D; S59D

- response (relative band intensity) [3]: 1
Substance: Exo70 wild type, HA-tagged and Flag-tagged copies co-expressed (from UniProt O54922) S47D
